Measured values from publication PMC7867571.

Target: H. influenzae VapXD2 heterotrimer (VapD homodimer with one VapX) (Haemophilus influenzae (non-typeable, strain 86-028NP)) (UniProt P71351)
Assay: crystal structure

H. influenzae VapXD2 heterotrimer (VapD homodimer with one VapX) (from UniProt P71351 1-91; Q4QN94 1-63) (complex)
stoichiometry N: 3
